Laboratory results from the RNAGym collection of RNA variant scans (doi:10.1073/pnas.2313332121).
Fewer inactive variants are shown than the library holds.

B1: TPR 5TU (parent)
chain: GGAUCUUCUCGAUCUAACAAAAAAGACAAAUCUGCCACAAAGCUUGAGAGCAUCUUCGGAUGCAGAGGCGGCAGCCUUCGGUGGCGCGAUAGCGCCAACGUUCUCAACUAUGACACGCAAAACGCGUGCUCCGUUGAAUGGAGUUUAUCAUG

Variants of: B1
Assay: polymerase ribozyme fitness, log enrichment relative to wild type (log ratio); higher = more active; in vitro selection for triplet polymerase activity
Method in brief: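 Mutant libraries of both subunits of a heterodimeric triplet polymerase ribozyme were PCR-built, transcribed, and selected once in triplicate, with frozen incubation at −7 °C and capture of gel-excised extended constructs on streptavidin beads before RT-PCR. Illumina sequencing of input and output libraries was filtered to genotypes with ≥10 input reads and ≥1 read per output. Fitness is the logarithm of genotype enrichment over wild-type enrichment, using inverse-variance-weighted replicate averages. The logarithm is base 2.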

Compared with C57A G59A G84U A97U C118G, U56A G80A U90A is lower in “polymerase ribozyme fitness (log ratio)” value: -3.12 for the first, ≤ -4.2 for the second.

First: U55A C85A G141C
Second: U56A A107U
The “polymerase ribozyme fitness (log ratio)” value of the first is higher: -1.86 for the first, -2.87 for the second.

First: U56C C79U
Second: U55G G84A C118U
The “polymerase ribozyme fitness (log ratio)” value of the first is lower: -1.8 for the first, -0.685 for the second.

Going from U55G U127G to U56A U61A C114G, the “polymerase ribozyme fitness (log ratio)” value falls from -2.9 to -3.96.

Going from U55A G71U G117A to U56A C57A C85G, the “polymerase ribozyme fitness (log ratio)” value rises from -3.07 to -0.79.

Compared with U55A U82G C96G C116U G140C, U55G U90A is lower in “polymerase ribozyme fitness (log ratio)” value: -4.17 for the first, ≤ -4.2 for the second.

U55A C72A U139C and U56A A73U C87A A142C cannot be ordered by “polymerase ribozyme fitness (log ratio)” value: ≤ -4.2 for the first, ≤ -4.2 for the second.

Compared with U55C G70A, U55G A89G G94A A119U is higher in “polymerase ribozyme fitness (log ratio)” value: -3.5 for the first, -1.9 for the second.

Going from U56A C118G A150G to U55G C69A A97U A119U G141A, the “polymerase ribozyme fitness (log ratio)” value rises from -2.41 to -1.39.

Going from U56A C132G A137U to U56A C96U G126A, the “polymerase ribozyme fitness (log ratio)” value rises from -4.03 to -0.336.

Compared with U56A G58A C103A C125A, C54U U148C is lower in “polymerase ribozyme fitness (log ratio)” value: -0.231 for the first, -1.84 for the second.

Compared with U55C C95U C103A, U55A G126A is higher in “polymerase ribozyme fitness (log ratio)” value: -1.54 for the first, -1.02 for the second.

Going from U55A G126C to U55A A73U C99U U145C, the “polymerase ribozyme fitness (log ratio)” value falls from 1.42 to ≤ -4.2.

First: U56A C96A A138G
Second: U56A G83U
The “polymerase ribozyme fitness (log ratio)” value of the first is lower: ≤ -4.2 for the first, -0.976 for the second.

Compared with U55A G81C G84U C116A, U56A A73U C87G C99G is lower in “polymerase ribozyme fitness (log ratio)” value: -2.11 for the first, ≤ -4.2 for the second.

Compared with U56A C57U C96U, U56C G94C is higher in “polymerase ribozyme fitness (log ratio)” value: -0.285 for the first, 0.00198 for the second.

U56G G83A C87G C116G G140C and U55G C69U U78A A91U C93U G141A cannot be ordered by “polymerase ribozyme fitness (log ratio)” value: ≤ -4.2 for the first, ≤ -4.2 for the second.

Going from U56A G81A G126U U135C A138C G141C to U56A G124C, the “polymerase ribozyme fitness (log ratio)” value rises from ≤ -4.2 to -1.68.

Compared with U56C G74U C76U G84U C125G A138C, U55C C85A A91C G126A is higher in “polymerase ribozyme fitness (log ratio)” value: ≤ -4.2 for the first, -4.06 for the second.

Compared with U56A U78A C79A, U56A C95A is higher in “polymerase ribozyme fitness (log ratio)” value: ≤ -4.2 for the first, -0.487 for the second.

U55A G71A G81C C95G C125U and U56G G59A G81U A89C G92U U139A cannot be ordered by “polymerase ribozyme fitness (log ratio)” value: ≤ -4.2 for the first, ≤ -4.2 for the second.

First: C57A A60G C75G A91U G136A A137G U144G
Second: U56G C85U
The “polymerase ribozyme fitness (log ratio)” value of the first is lower: ≤ -4.2 for the first, -1.42 for the second.

First: U56G C85A
Second: U56G G84A A91G A115G
The “polymerase ribozyme fitness (log ratio)” value of the first is higher: -2.05 for the first, -4.1 for the second.

Going from U55A C87U C93U to U55G G62A, the “polymerase ribozyme fitness (log ratio)” value rises from -4.13 to -2.48.

Going from U56G G83U C125U to U55A C85G C114A A142C U151A, the “polymerase ribozyme fitness (log ratio)” value falls from -1.82 to -4.19.

Going from U56A U61G G65A C85A G86A A121U U127A to U56A C96U U101C U139G, the “polymerase ribozyme fitness (log ratio)” value rises from ≤ -4.2 to -0.437.

C57G A73G C87G A98U C125G G141A and U55A C85A G100A A121G C131A cannot be ordered by “polymerase ribozyme fitness (log ratio)” value: ≤ -4.2 for the first, ≤ -4.2 for the second.

Going from U56A C96G to U56G U78C C99G G124C C125U, the “polymerase ribozyme fitness (log ratio)” value falls from -0.228 to -2.94.

Compared with C57A G74U G88U A115G A119U U145G C149G, U55A C95A G143A U144C is higher in “polymerase ribozyme fitness (log ratio)” value: ≤ -4.2 for the first, -3.04 for the second.

U55A U56A C69U C79U G86A A91U A106C A121G C125U A142C and U55A G62U C63G C87U A98U A120U C149G cannot be ordered by “polymerase ribozyme fitness (log ratio)” value: ≤ -4.2 for the first, ≤ -4.2 for the second.

Compared with U55G G92A, U55G G92C is higher in “polymerase ribozyme fitness (log ratio)” value: -3.13 for the first, -0.157 for the second.

First: C57G C93A A113G A120C
Second: U56A C63U A64U G84A G128A
The “polymerase ribozyme fitness (log ratio)” value of the first is higher: -4.13 for the first, ≤ -4.2 for the second.

First: U55A U56G G80A
Second: C57A C129U G141A
The “polymerase ribozyme fitness (log ratio)” value of the first is higher: -1.37 for the first, ≤ -4.2 for the second.

First: U55A C76A A115G A121C
Second: U56G G84C C116U
The “polymerase ribozyme fitness (log ratio)” value of the first is higher: -1.09 for the first, -4.17 for the second.

Going from U56G U102C to U56A C105U C116G, the “polymerase ribozyme fitness (log ratio)” value rises from -1.91 to -0.192.

Compared with U55G C93A A98U A142U, C57G G59A U78G G84A is lower in “polymerase ribozyme fitness (log ratio)” value: -3.92 for the first, ≤ -4.2 for the second.

Going from U56G G58C U61A to U56A G126U, the “polymerase ribozyme fitness (log ratio)” value rises from -2.98 to 0.137.

U55A G88U and U56A C99G G140U are within 0.2 log units of each other in “polymerase ribozyme fitness (log ratio)” value: -4.14 for the first, -3.99 for the second.

Going from U56A G100U to U56A A73C G84U U127C, the “polymerase ribozyme fitness (log ratio)” value falls from -4.09 to ≤ -4.2.

U55A C87G U101G G143A and U56C A64U C93A C95U G133C cannot be ordered by “polymerase ribozyme fitness (log ratio)” value: ≤ -4.2 for the first, ≤ -4.2 for the second.

First: U55A C79U G83A C93A A97C A138U
Second: U56A G88A
The “polymerase ribozyme fitness (log ratio)” value of the first is lower: ≤ -4.2 for the first, -3.78 for the second.

Compared with C57G G86U, C57G A73U G83C G133U G143C U145C is lower in “polymerase ribozyme fitness (log ratio)” value: -1.26 for the first, ≤ -4.2 for the second.
